Source: article PMC9728965, “Stomatal CO2/bicarbonate sensor consists of two interacting protein kinases, Raf-like HT1 and non-kinase-activity requiring MPK12/MPK4” (Science Advances, 2022)
Positions count from the first letter of the chain named.

B1: GST-MPK4 (mitogen-activated protein kinase 4) (enzyme, Arabidopsis thaliana, UniProt Q39024 1-376, looked up)
chain: MSAESCFGSSGDQSSSKGVATHGGSYVQYNVYGNLFEVSRKYVPPLRPIGRGAYGIVCAATNSETGEEVAIKKIGNAFDNIIDAKRTLREIKLLKHMDHENVIAVKDIIKPPQRENFNDVYIVYELMDTDLHQIIRSNQPLTDDHCRFFLYQLLRGLKYVHSANVLHRDLKPSNLLLNANCDLKLGDFGLARTKSETDFMTEYVVTRWYRAPELLLNCSEYTAAIDIWSVGCILGETMTREPLFPGKDYVHQLRLITELIGSPDDSSLGFLRSDNARRYVRQLPQYPRQNFAARFPNMSAGAVDLLEKMLVFDPSRRITVDEALCHPYLAPLHDINEEPVCVRPFNFDFEQPTLTEENIKELIYRETVKFNPQDSV
notes: MPK4, MAP kinase of Arabidopsis thaliana; UniProt Q39024 printed for the model; Expressed from pGEX-6P-1; source: E. coli, purified (glutathione Sepharose beads); not shown: GST, N-terminal, kept
B2: GST-MPK12 (mitogen-activated protein kinase 12) (enzyme, Arabidopsis thaliana, UniProt Q8GYQ5 1-372, looked up)
chain: MSGESSSGSTEHCIKVVPTHGGRYVQYNVYGQLFEVSRKYVPPIRPIGRGACGIVCAAVNSVTGEKVAIKKIGNAFDNIIDAKRTLREIKLLRHMDHENVITIKDIVRPPQRDIFNDVYIVYELMDTDLQRILRSNQTLTSDQCRFLVYQLLRGLKYVHSANILHRDLRPSNVLLNSKNELKIGDFGLARTTSDTDFMTEYVVTRWYRAPELLLNCSEYTAAIDIWSVGCILGEIMTGQPLFPGKDYVHQLRLITELVGSPDNSSLGFLRSDNARRYVRQLPRYPKQQFAARFPKMPTTAIDLLERMLVFDPNRRISVDEALGHAYLSPHHDVAKEPVCSTPFSFDFEHPSCTEEHIKELIYKESVKFNPDH
notes: MPK12, MAP kinase of Arabidopsis thaliana; UniProt Q8GYQ5 printed for the model; Expressed from pGEX-6P-1; source: E. coli, purified (glutathione Sepharose beads); not shown: GST, N-terminal, kept

How the values were obtained:
[1] = target: T1, His-HT1-R173Q (Arabidopsis thaliana, UniProt Q2MHE4 1-390, R173Q); test: pull-down; GST-MPK on glutathione Sepharose 4B beads, His-HT1 as prey; 5 ug of each protein in 200 ul of 50 mM tris-HCl pH 7.5, 150 mM NaCl, 0.1% Triton X-100, 1 mM DTT; 20 mM NaHCO3 or 20 mM NaCl (control) in all buffers including washes; room temperature; immunoblot with anti-GST and anti-His; conditions: both partners purified
T1 construct: HT1 protein kinase of Arabidopsis thaliana with R173Q (dominant allele from an EMS screen); As m1 with the point mutation; source: E. coli, purified (Ni resin beads); not shown: His tag, N-terminal, kept
T1 sequence (looked up): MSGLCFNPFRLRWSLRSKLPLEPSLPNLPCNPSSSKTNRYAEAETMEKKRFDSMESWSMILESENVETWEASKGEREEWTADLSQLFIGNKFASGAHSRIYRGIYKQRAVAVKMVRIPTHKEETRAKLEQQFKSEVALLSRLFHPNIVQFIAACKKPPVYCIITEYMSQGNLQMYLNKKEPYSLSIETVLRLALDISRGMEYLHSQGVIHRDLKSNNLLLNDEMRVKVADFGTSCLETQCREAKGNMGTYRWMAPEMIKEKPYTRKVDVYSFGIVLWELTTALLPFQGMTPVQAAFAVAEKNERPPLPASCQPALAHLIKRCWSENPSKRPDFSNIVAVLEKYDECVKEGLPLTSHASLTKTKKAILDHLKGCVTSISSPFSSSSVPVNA

[2] = target: T2, His-HT1 (high leaf temperature 1, Raf-like protein kinase), wild type (Arabidopsis thaliana, UniProt Q2MHE4 1-390); test: as above; conditions: both partners purified
T2 construct: HT1 protein kinase of Arabidopsis thaliana; UniProt Q2MHE4 is printed as the 'long form of HT1' used for the AlphaFold2 model; Expressed from pET30a(+); source: E. coli, purified (Ni resin beads); not shown: His tag, N-terminal, kept
T2 sequence (looked up): T1 sequence (looked up) with Q173R

| binding result [1] | binding result [2] | Binder |
| --- | --- | --- |
| binds | binds | B1 |
| – | binds | B2 |
